The values below come from publication PMC5854381, “Dynamics of Scabin toxin. A proposal for the binding mode of the DNA substrate”.

One may read the Km as the substrate concentration at which the rate is half of its maximum. One may read the Kd as the equilibrium constant for the complex coming apart.

The test system of series [1] is NC(=O)c1ccc[n+]([C@@H]2O[C@H](COP(=O)(O)OP(=O)(O)OC[C@H]3O[C@@H](n4cnc5c4ncn4ccnc54)[C@H](O)[C@@H]3O)[C@@H](O)[C@H]2O)c1. As to the kind of experiment: purified protein. The conditions noted are these: pH 7.9.
For the next series, the target named is Scabin WT (Streptomyces scabies, UniProt C9Z6T8 26-200). As to the kind of experiment: fluorescence anisotropy; no NAD+ mentioned; text labels this WT value N110A [sic]; Anisotropy: 5 uM Cy3-dsDNA, 25 mM Tris-HCl pH 8.2, 100 mM NaCl, 22 C. The conditions noted are these: protein: recombinant; label: 5' Cy3 on strand 1; blunt. A general note: In fluorescence polarisation assays a small probe gives low polarisation when free and higher when bound to something large.

Take (Streptomyces scabiei 87.22): the Km in series [1] turned out to be 68 ± 3 µM.

B1: Cy3-dsDNA 21 bp (dsDNA)
DNA 1: GGAAGAGAGAGAGAAAGAGAG
DNA 2: CTCTCTTTCTCTCTCTCTTCC
With B1, the Kd in the series with Scabin WT is 51 ± 4 µM.
